In article PMC5321536 (Angewandte Chemie (International ed. in English), 2017):

Target: the molecule itself
Assay: solution-state diffusion-ordered NMR spectroscopy

B1: isolated cytoplasmic (soluble) C-terminal domain of CzcD (CzcD_(209-316)) (domain or fragment, Cupriavidus metallidurans CH34, UniProt P13512 209-316, looked up)
chain: EGVPDDVDLAEVEKQILATPGVKSFHDLHIWALTSGKASLTVHVVNDTAVNPEMEVLPELKQMLADKFDITHVTIQFELAPCEQADAAQHFNASPALVGSKSLAAGGN
  stoichiometry N: 2
